Source: patent US8680242B2, “Plasminogen receptor, polypeptides and antibodies thereof” (priority 2008, dated 2014)
Ends that are not written are not given here.

B1: K1-3: plasminogen fragment Tyr79-Val337 or Tyr79-Val353, obtained by elastase digestion (protein)
chain: YLSECKTGNGKNYRGTMSKTKNGITCQKWSSTSPHRPRFSPATHPSEGLEENYCRNPDNDPQGPWCYTTDPEKRYDYCDILECEEECMHCSGENYDGKISKTMSGLECQAWDSQSPHAHGYIPSKFPNKNLKKNYCRNPDRELRPWCFTTDPNKRWELCDIPRCTTPPPSSGPTYQCLKGTGENYRGNVAVTVSGHTCQHWSAQTPHTHNRTPENFPCKNLDENYCRNPDGKRAPWCHTTNSQVRWEYCKIPSCDSSPV
B2: K5: plasminogen fragment within Val442-Asn790, kringle 5 and the latent protease domain (protein)
chain: VVAPPPVVLLPDVETPSEEDCMFGNGKGYRGKRATTVTGTPCQDWAAQEPHRHSIFTPETNPRAGLEKNYCRNPDGDVGGPWCYTTNPRKLYDYCDVPQCAAPSFDCGKPQVEPKKCPGRVVGGCVAHPHSWPWQVSLRTRFGMHFCGGTLISPEWVLTAAHCLEKSPRPSSYKVILGAHQEVNLEPHVQEIEVSRLFLEPTRKDIALLKLSSPAVITDKVIPACLPSPNYVVADRTECFITGWGETQGTFGAGLLKEAQLPVIENKVCNRYEFLNGRVQSTELCAGHLAGGTDSCQGDSGGPLVCFEKDKYILQGVTSWGLGCARPNKPGVYVRVSRFVTWIEGVMRN

Assays:
[1] = molecular target: T1, plasminogen binding to the Plg-RKT polypeptide, CEQSKLFSDK (SEQ ID NO: 33) (Mus musculus, UniProt Q9D3P8, R138C); assay: Inhibition of biotinylated plasminogen binding to immobilized Plg-RKT C-terminal peptide (streptavidin-HRP); details: plasminogen domains from elastase digestion
T1 construct: host or cells: peptide is synthetic
Experimental: (§1) Mab36Al2 or control rat IgG2A was incubated with the Plg-RKT polypeptide, CEQSKLFSDK (SEQ ID NO: 33), coupled to BSA and immobilized on microtiter wells. In these assays, 200 nM biotinylated plasminogen was then added and plasminogen binding was detected with streptavidin-HRP.
(§2) We tested the ability of a peptide, CEQSRFFIDK (SEQ ID NO: 34), corresponding to the C terminus of human Plg-RKT (residues 139-147), to inhibit the binding of biotinylated-plasminogen to the C-terminal peptide CEQSKLFSDK (SEQ ID NO: 33), of mouse Plg-RKT when CEQSKLFSDK (SEQ ID NO: 33), was coupled to BSA and immobilized to microtiter plates as described above. […] Thus, the interaction of plasminogen with the C-terminal peptide of Plg-RKT requires the presence of a C-terminal lysine residue.
(§3) In other assays to define the ligand recognition specificity of Plg-RKT for plasminogen. the Plg-RKT polypeptide, CEQSKLFSDK (SEQ ID NO: 33), was coupled to microtiter wells. Plasminogen was directly biotinylated and then incubated with the immobilized peptide and detected with streptavidin-HRP, as above. […] (K1-3 is comprised of the plasminogen amino acid sequences, Tyr^79-Val^337 or Tyr^79-Val^353. K4 is contained within the plasminogen amino acid sequences, Val^354-Ala^439. K5-PD is contained within the plasminogen amino acid sequences, Val^442-Asn^790 and contains kringle 5 as well as the latent protease domain.)

Plasminogen = molecular target: T2, Plasminogen (Homo sapiens, UniProt P00747); assay: Plasminogen binding to BSA-coupled C-terminal Plg-RKT peptide coated on microtiter wells, detected with anti-plasminogen MAb
T2 construct: host or cells: peptide is synthetic
T2 sequence (P00747 20-810 limits assumed): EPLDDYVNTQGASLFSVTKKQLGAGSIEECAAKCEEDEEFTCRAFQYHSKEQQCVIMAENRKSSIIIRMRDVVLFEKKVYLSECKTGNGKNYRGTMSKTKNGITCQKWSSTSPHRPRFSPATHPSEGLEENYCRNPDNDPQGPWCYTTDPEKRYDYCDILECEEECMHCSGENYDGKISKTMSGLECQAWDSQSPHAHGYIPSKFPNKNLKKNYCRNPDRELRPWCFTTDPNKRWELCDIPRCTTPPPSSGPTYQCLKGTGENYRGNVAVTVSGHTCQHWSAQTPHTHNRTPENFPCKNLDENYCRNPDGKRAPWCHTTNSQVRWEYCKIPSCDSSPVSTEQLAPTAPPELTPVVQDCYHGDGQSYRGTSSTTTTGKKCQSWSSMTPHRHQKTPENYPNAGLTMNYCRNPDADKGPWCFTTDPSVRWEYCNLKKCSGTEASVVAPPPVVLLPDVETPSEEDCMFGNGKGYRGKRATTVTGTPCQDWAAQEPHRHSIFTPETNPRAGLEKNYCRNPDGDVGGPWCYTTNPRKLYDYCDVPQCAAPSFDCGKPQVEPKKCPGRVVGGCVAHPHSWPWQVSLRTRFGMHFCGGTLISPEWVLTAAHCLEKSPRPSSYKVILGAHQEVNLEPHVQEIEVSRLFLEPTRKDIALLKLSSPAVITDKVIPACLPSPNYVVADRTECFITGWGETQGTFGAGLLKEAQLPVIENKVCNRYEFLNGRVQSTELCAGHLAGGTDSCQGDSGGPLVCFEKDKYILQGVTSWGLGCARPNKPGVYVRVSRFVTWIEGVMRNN
From the text: Our isolation method was consistent with exposure of the carboxyl-terminus of Plg-RKT (with its carboxyl-terminal lysine) on the cell surface and also with the ability of the carboxyl-terminal domain to bind to plasminogen. For verification, we tested whether a synthetic peptide, corresponding to the C-terminus of Plg-RKT could bind plasminogen. The peptide, CEQSKLFSDK (SEQ ID NO: 33) corresponding to the ten C-terminal amino acids of Plg-RKT with cysteine substituted for R138) was coupled to bovine serum albumin (BSA) and then coated onto wells of microtiter plates at 10 μg/ml. The wells were blocked with 5% BSA. Plasminogen (0.2 μM) was incubated with the wells, followed by our anti-plasminogen MAb^36 and detection with HRP-conjugated goat anti-mouse IgG (Biosource, Camarillo, Calif.). Plasminogen bound to the peptide in a concentration dependent manner with 50% maximal binding achieved at a plasminogen concentration of ˜10 nM. The binding was specific because it was blocked in the presence of epsilon-aminocaproic acid (EACA), consistent with the ability of EACA to inhibit plasminogen binding to differentiated Hoxa9-ER4 cells. […] In controls for the detection method, O.D.490 values obtained using an isotype control antibody or in the absence of added plasminogen were <5% of the values for plasminogen binding to the BSA-coupled peptide detected with anti-plasminogen MAb.

biotinylated plasminogen = molecular target: T3, biotinylated plasminogen (Homo sapiens, UniProt P00747); assay: Direct binding of biotinylated plasminogen to immobilized peptide (streptavidin-HRP)
T3 construct: host or cells: peptide is synthetic
T3 sequence (P00747 20-810 limits assumed): as above
Experimental: as §1, §3

[2] = tested on: plasminogen binding to the Plg-RKT polypeptide, CEQSKLFSDK (SEQ ID NO: 33); assay: Inhibition of biotinylated plasminogen binding to immobilized Plg-RKT C-terminal peptide (streptavidin-HRP); parameters: species or system mouse
Experimental: as §1, §2, §3

| Molecule | order of effectiveness in inhibiting plasminogen interaction with immobilized CEQSKLFSDK [1] | inhibition of plasminogen binding to immobilized CEQSKLFSDK (in words) [2] | other results |
| --- | --- | --- | --- |
| Plg: plasminogen, precursor of plasmin with five kringle domains and a serine protease domain | Plg>K1-3>K5>K4 |  |  |
| NCCCCCC(=O)O [epsilon-aminocaproic acid] |  |  | effect on plasminogen binding to the peptide CEQSKLFSDK (Plasminogen; in the presence of EACA): blocked |
| KDSFLKSQEC (listed as Mus musculus) [reverse peptide control, reference compound] |  |  | nonspecific plasminogen binding, relative to binding to CEQSKLFSDK (Plasminogen; control peptide on wells): < 10%; biotinylated-Plg binding to the immobilized peptide (biotinylated plasminogen): no biotinylated-Plg binding |
| CEQSRFFIDK [CEQSRFFIDK] |  | inhibited in a dose-dependent manner |  |
| CEQSRFFIDK [peptide with R142 replaced with K, human C-terminal peptide with R142 replaced with K] |  | more effective competitor |  |
| CEQSRFFIDA [mutant peptide with the C-terminal K replaced with A, reference compound] |  | not affected |  |
| CEQSKLFSDK [CEQSKLFSDK] |  |  | biotinylated-Plg binding to the immobilized peptide (biotinylated plasminogen): concentration-dependent manner |
| B1 | Plg>K1-3>K5>K4 |  |  |
| B2 | Plg>K1-3>K5>K4 |  |  |
